Measurements published in the nanobody polyreactivity screen of Harvey et al. (2022).

Test: yeast display, Sf9 membrane polyspecificity reagent, FACS + sequencing; frameworks hold sequencing errors
How it was run: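 A synthetic nanobody library was expressed on Saccharomyces cerevisiae BJ5465 by galactose induction for 36–48 hours. The library was stained for 1 hour at 4 °C with 10% biotinylated, detergent-solubilized Sf9 membrane reagent and enriched with streptavidin microbeads before FACS. Low and high (top ~1%) gates were set on anti-HA fluorescence for expression and streptavidin fluorescence for reagent binding, and each polyreactivity label reflects the gate of origin.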

Sequence | polyreactivity (PSR sort gate)
QVQLVESGGGLVQAGGSLRLSCAASGSILYYYAMGWYRQAPGKERELVAAISWSGASTYYADSVKGRFTISRDNAKNTVYLQMNSLIPEDTAVYYCNADYTRDRYVANRYYYWGQGTQVTVSS | high polyreactivity
QVQLVESGGGLVQAGGSLRLSCASSGSTFRRNAMGWYRQAPGKERELVAAITWRGTSTYYADSVKGRFTISRDNAKNTVYLQMNSLKPEDTAVYYCNAVYNPYTTYSLSAYDYWGQGTQVTVSS | high polyreactivity
QVQLVESGGGLVQAGGSLRLSCAASGRTFRTNAMGWYRQAPGKESELVADITYSGDSTYDADSVKGRFTISRDNAKNNVYLQMNSLKPEDTAVYYCNARLLSGPGYDYWGQGTQVTVSS | low polyreactivity
QVQLVESGGGLVQAGGSLRLSCAASGSTFGINAMGWYRQAPGKERELVASITRRGGSTYYADSVKGRFTISRDNAKNTVYLQMHSLKPEDTAVYYCAAGNKRRFEGDYWGQGTQVTVSS | high polyreactivity
QVQLVESGGGLVQAGGSLRLTCADSGSILYINAMGRYIQAPGKEREWVAAITYSGGSTYYADSVKGRFTISRDNAKNTVYLQMNSLKPEDTAVYYCAADAVVAGRYDGHDYWGQGTQVTVSS | low polyreactivity
QVQLVESGGGLVQAGGRLRVSCAASGFTFNCYTMGGSRQAPGKERELVAAITWSGGSTYYADSVKGRFTISRDNAKNSVYLQMNSLIPEDTAVYYCAVYPYGSQYYALDYWGQGTQVTVSS | high polyreactivity
QVHLVESGGGLVQAAGILRLSSAPSGSIFPYYAMGWYRQAPGKEREFVAAINYAGGSTYYADSVKGRFTISRDNAKNTVYLQMNSLKPEDTAVYYCNARTFGPNGKHRYGYWGQGTQVTVSS | high polyreactivity
QVQLQESGGGLVQAGGSLRLSCASSGSIFWVWRMGWYCQAPGKEREFVAGIGLGATTNYADSVKGRFTISRDNAKNTVYLQMNSLKPGDTAVYYCATVGYYKGNQVLPAKDGDSWGQGTQVTVSS | high polyreactivity
QVQLVESGGGLVQAGGSLRLSCAASGSTFGPYAMGWYRQAPGKERELVADITVSDGSTYYADSVKGRFTISRDNAKNTVYLQMNSLKPEDTAVYYCAAEIYYSFGYWGQGTQVTVSS | low polyreactivity
QVQLVESGGGLVQAGGSLRLSCAASGSTFGVNTMGWYRQAPGKERELVAAITKSGGSTYYADSVKGRFTISRDNAKNTVYLQMNSLKPEDTAVYYCNTDYGRYLYYRYGYWGQGTQVTVSS | low polyreactivity
QVQLVESGGGLVQAGGSLRLSCAASGFTFGQYAMGWYRQAPGKERELVAAITGSGGRTYYADSVKGRFTISRDNAKNTVYLQMNSLKPEDTAVYYCNARVPLRHYSNYYWGQGTQVTVSS | high polyreactivity
QVQLVESGGGLVQAGGSLRLSCAASGRIFWDYGMGWYRQAPGKERELVAVITWGGGSTYYADSVKGRFTISRDNAKNTVYFQMNSLKPEDTAVYYCAKEYHYYYWGQGTQVTVSS | low polyreactivity
QVQLVESGGGLVQAGGSLRLSCAASGRTFGYYAMGWYRQAPGKERELVAAINWRGDSTYYADSVKGRFTISRDNAKNTVYLQMNSLKPEDTAVYYCAALVRGYDRSIRMDYWGQGTQVTVSS | high polyreactivity
QVQLVESGGGLVQAGGSLRLSCAASGRIFQDYARGWYRQAPGKERELVPSIRWSSTSTYYADSVKGRFTISRDNAKNTVYLQMNSLKPEDTAVYYCNARYPYYTRTRDGRMYYWGQGTQVTVSS | low polyreactivity
QVQLVESGGGLVPARGSLRLSWAASGSTFSLYAMGWYRQAPGKERELVAAISWSGGNTYYADSVKGRFTISRDNAKNTVYLQMNSLKPEDTAVYYCAAEGKTFHRYYLYSYDYWGQGTQVTVSS | high polyreactivity
QVQLVESGGGLVQAGGSLRLSCAASGITFKYYAMGWYRQAPGKERELVAAITRGGSTYYADSVKGRFTISRDNAKNTVYLQMNSLKPEDTAVYYCNKARTYELYWGQGTQVTVSS | high polyreactivity
QVQLVESGGGLVQAGGSLRLSCAASGITFVDYAMGWYRQAPGKEWELVAAITTGGSTNYADSVKGRFTISRDNAKNTVYLQMNRLKPEDTAVYYCNKRPVILYDYWGQGTQVTVSS | low polyreactivity
QVQLVESGGGLVQEGGSLRLSCAASGFTFGSYAMGWYRQAPGTERELLAAITTDGSTYYADSVKGRFTISRDNAKNTVYLHMNSLKREDTAVYYCAAGYSYDRYGSDMDYWGQGTQVTVSS | low polyreactivity
QLHLQVSGGGLVQAGGSLRLSCAASGSIFLTSEKGWYRQAPGKERELVAAIATGTSTNYADSVKGRFTISRDNAKNTVYLQLNSLKPEDTAVYYCATYDYWGQGTKVTVSS | low polyreactivity
QVQLEESGGGLVQAGGSLRLSCAASGSIFKGYAMGWYRQAPGKESELVAAISGGGGSTYYADSVKGRFTISRDNAKNTVYLQMNSLKPEDTAVYYCNRDDSWSPSGAYDYWGQGTQVNVSS | low polyreactivity
QVQLVESGGGLVQAGGSLRLSCAASGSTISVNAMGWYRQAPGKERELVAAISDRGGSTYYADSVKGRFTISRDNAKNTVYLQMNSLKPEDTAVYYCAALFLRVTYFRLGLYSYEYWGQGTQVTVSS | low polyreactivity
QVQLVESGGGLVQAGGSLRLSCAASGRIFRKYAMGWSRQAPGKEREFVAAISSSGGITYYADSVKGRFTISRDNAKNTVYLQMNSLKPEDTAVYYCADLYPQHRYDYWGQGTQVTVSS | high polyreactivity

Sequence | polyreactivity (PSR sort gate)
QVQLVESGGGLVQAGGSLRLSCAASGSIFSCYTMGWYRQAPGKERELVAASTTYADSVKGRFTISRDNAKNTVYLQMNSLKPEDTAVSYCATRHPARRDYWGQGTQVTVSS | low polyreactivity
QVQLVESGGGLVQAGGSLRLSCAASGSTFNIYVMGSYREPPGKERELVAAITTSGRTYYADSVKGRFTISRDNAKNTVYLQMNSLKPEDNAVYYCAAATGTYGRGGYYWGQGTQVTVSS | high polyreactivity
QVQLVESGGGLVQAGGSLRLSCAASGRIFYINAMGWYRQAPGKERELVAAITGGDGSTTYADSVKGRFTISRDNAKNTVYLQMNSLKPEDTAVYYCNAVTARKYAESQFDHWGQGTQVTVSS | low polyreactivity
QVQLVESGGGLVQAGGSLRLSCAASGSIFSRNAKGWYRQAPGKERELVAAISRGANTYYADSVKGRLTISRDNAKNSVYLQMNSLKPEDTAVYYCAARIYKFPYTYDYWGQGTQVTVSS | high polyreactivity
QVQLVESGGGLVQAGGSLRLSCAAYGIIFYYYAMGWYRQAPGKERELVAAITGTGSRTYYADSVKGRFTISRDNAKNTVYLQMNSLKPEDTAVYYCNARSFATGSEVPARGYWGQGTQVTVSS | high polyreactivity
QVQLVESGGGLVQAGGSLRLSCAASGRIFKRYVMGWYRQAPGKERELVAAISQRGGSTNYADSVKGRFTISRDNAKNTVYLQMNSLKPEDTAVYYCAAGFFSRYDYWGQGTQVTVSS | high polyreactivity
QIQLEESVGGLVQAGGTLRLSCASSGFTFYINVMGWDRQAPGKERELVAAISGTGGTNYADSVKGRFTISRDNAKNTVYLQMNSLKPEDTAVYYCARDYYVYSTGHVPLDYWGQGTQVTVSS | low polyreactivity
QVQLVESGGGLVQAGGSLRLSCAASGSTFPTNAMGWYRQAPGKERELVATITSTGSTKYADSVKGRFTISRDNAKNTVYLQMNSLKPEDTAVYYCAADEYAYASRFYWALIHDYWGQGTQVTVSS | low polyreactivity
QVQLVESGGGLVQAGGSLRLSCAASGRNFAGYAMLWYRQAPGKERELVATISSGGSTYYADSVKGRFTISRDNAKNTVYLQKNSLKPEDTAVYYCAAEYGTRQYSSYYKLFNYWGQGTQVTVSS | low polyreactivity
QVQLVESGGGLVQAGGSLRLSCAASGSTIQYYTMGWYRQAPGKERELVASITSGDSTNYADSVKGRFTISRDNAKNTVYLQMNSLKPEDTAVYYCARDRVSTQLQSSPAVSELYYWGQGTQVNVSS | low polyreactivity
QVQLVESGGGLVQAGGSLRLSCAASGSIFTKYAMGWYRQAPGKEREFVAAITLSGGSTYYADSVKGRFTISRDNAKNTVYLQMNSLKPEDTAVYYCNAAYTYVTAWYYYWGQGTQVTVSS | high polyreactivity
QVQLVESGGGLVQAGGSLRLSCAASGRTFPRYVMGWYRQAPGKERELVAAITSSGGSTYYADSVKGRFTISRDNAKNTVYLQMNSLKPEDTAVYYCAAYARPYSGPYAYRLDYWGQGTQVTVSS | high polyreactivity
QVQLVESGGGLVQAGGSLRLSCAASGSTFRYNAMGWYRQAPGKVRELVASITWSGGDTYYADSVKGRFTISRDNAKNTVYLQMNSLKPEDTAVYYCNKRVHYIAGRGYDYWGQGNQVTVSS | low polyreactivity
QVQLLESGGGLVQAGGSLRLTCAASGRTFQYNAMGWYRQAPGKERELVGAISSTGGSTYYADSVKGRFTISRDNAKNTVYLQMNSLKPEDTAVYYCARQGRYTRGDYWGQGTQVTVSS | high polyreactivity
QVQLVESGGGIVQAGGSLRLSCAASGFIFYRYAMGWYRQAPGKERELVAAITGSGARTYYADSVKGRFTISRDNAKNTVYLQMNSLKPEDTAVYYCNARGYRGYDYWGQGTQVTVSS | high polyreactivity
QVQLVESGGGLVQAGGSLRLSCAASGNIFGQYAMGWYRQAPGKEREFVAAITWSGGSTYYADSVKGRFTISRDNAKNTVYLQMNSLKPEDTAVYYCAADYGKTHRYDYDYWGQGTQVTVSS | low polyreactivity
QVQLVESGGGLVQAGGSLRLSCAASGRLFYSYAMGWYRQAPGKERELVAAIGRGGGTTYADSVKGRFTISRDNAKNTVYLQMNSLKPEDTAVYYCAADWHSTPRHTMDYWGQGTQVTVSS | low polyreactivity
QVQLVESGGGLVQAGGSLRLSCAASGSTFGRNAMGWYRQAPGKERELVAAISSGGRTYYADSVKGRFTISRDNAKNTVYLQMNSLKPEDTAVYYCARDDYGTLVKLYVRGFNYWGQGTQVTVSS | low polyreactivity
QVQLVESGGGLVQAGGSLRLSCAASGFTFSNYAMGWYRQAPGKERELVAAISRSGGSTYYADSVKGRFTISRDNAKNTVYLKMNSLKPEDTAVYYCNAVRYHARSGWSDYWGQGTQVTVSS | high polyreactivity
QVQLVESGGGIVQAGGILRLSSAASGRTFYSYTMGWSRQEPGKERELVAAINRGGSTYYADSVKGRFTISRDKAKNTVYLQMNSLKPEDTEVYYCAVGYAHSSNRRYYYKKTHGYWGQGTQVTVSS | low polyreactivity
QVQLVESGGGLVQAGGSLRLSCAASGRTFARYAMGRYRQAPGKERELVAAITRGSGSTYYADSVKGRFTISRDNAKNTVYLQMNSLKTEDTAVYFCAKRSRGLKFDYWGQGTQVTVSS | high polyreactivity
